Test results taken from article PMC3441419, “The Redox-Sensing Regulator Rex Modulates Central Carbon Metabolism, Stress Tolerance Response and Biofilm Formation by Streptococcus mutans”.

T1: rRex (Streptococcus mutans UA159?) (UniProt Q8DU91)
T1 sequence: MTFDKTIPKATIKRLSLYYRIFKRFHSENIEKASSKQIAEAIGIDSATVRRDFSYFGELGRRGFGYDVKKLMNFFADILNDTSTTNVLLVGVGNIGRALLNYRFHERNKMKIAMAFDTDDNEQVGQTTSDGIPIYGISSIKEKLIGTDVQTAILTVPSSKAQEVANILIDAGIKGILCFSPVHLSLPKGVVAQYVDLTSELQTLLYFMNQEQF

T2: rRex (UniProt Q8DU91 1-213)
T2 sequence: T1 sequence

B1: mutated adhE Rex-box oligo m148Fw/m148Rv (dsDNA)
DNA 1: ATTTTTAACAGTAAAGGGTTACAATGACAAG
DNA 2: CTTGTCATTGTAACCCTTTACTGTTAAAAAT
B2: adhE1 cold oligo (dsDNA)
DNA 1: TTTTGTGAAAAGGGTTACAATG
DNA 2: CATTGTAACCCTTTTCACAAAA
B3: adhE Rex-box oligo 148Fw/148Rv (dsDNA)
DNA 1: ATTTTTTTGTGAAAAGGGTTACAATGACAAG
DNA 2: CTTGTCATTGTAACCCTTTTCACAAAAAAAT

Columns and labels:
[1] = target: T1, rRex (Streptococcus mutans UA159?); experiment: EMSA; settings: 20 mM Tris pH 8.0, 1 mM EDTA, 75 mM KCl, 2 mM DTT, 10% glycerol, 10 min at room temperature (+15 min after NAD+/NADH); 5% native PAGE
rRex [2] = target: T2, rRex; experiment: EMSA; 20 mM Tris pH 8.0, 1 mM EDTA, 75 mM KCl, 2 mM DTT, 10% glycerol, 10 min at room temperature (+15 min after NAD+/NADH); 5% native PAGE; settings: protein: recombinant; tags: N-terminal His (pQE30); blunt
rRex [3] = target: T2, rRex; experiment: competition; unlabeled competitor against biotinylated adhE1, dose-dependent; 20 mM Tris pH 8.0, 1 mM EDTA, 75 mM KCl, 2 mM DTT, 10% glycerol, 10 min at room temperature (+15 min after NAD+/NADH); 5% native PAGE; settings: protein: recombinant; tags: N-terminal His (pQE30); blunt

Row | Molecule | binding [1] | binding result (rRex [2]) | also measured
1 | ACAAGCCCATACTGAGTTTGGACATTAAAGCTCAGCAGGGCTATGATTATGATGTCATTATCATCGGCGGCGGTGTTTCAGGTGTGACTCTAGCC (double strand) [gshR promoter] | binds | – | –
2 | ATGACAGTTCCTCGCATTTTTAATTTATGTTATAATTATAAGTGAAAAACATCACATTTGAAAAGCCTTACAAATATCTTAAAAAATGACTTTTTATGACTTTTAGATGGGAGGTTTGCTTAGT (double strand) [frdC promoter] | binds | – | –
3 | B1 | – | no binding | –
4 | B2 | – | – | binding result (rRex [3]): binds
5 | B3 | – | binds | –
